Residues, ends and D or L forms follow the SMILES beside them. No end group written: not given here.
B1: DPT-C9r (fusion of DPT-sh1 and C9 reverse sequence) (peptide)
peptide: VKKKKIKREIKILDESRAWQELIGDLTEIY
modifications: also: biotinylated, position not given here
notes: Negative control peptide; Used biotinylated in the pull-down
B2: C9 peptide (mouse caspase-9 aa 401-418, PP2Ac binding domain) (peptide)
peptide: YIETLDGILEQWARSEDL
modifications: also: biotinylated, position not given here
notes: Synthetic, non cell-penetrating peptide; Used biotinylated on streptavidin beads in the pull-down; also called C9m

Columns and labels:
[1] = Cell penetration / internalization of peptides; assay type: cell-based
human caspase-9 = target: T1, human caspase-9 (Homo sapiens, UniProt P55211); test: Caspase-9-binding assay on cellulose-bound peptides containing human PP2Ac sequences; details: dodecapeptides bound onto cellulose membrane
T1 sequence (P55211 1-416): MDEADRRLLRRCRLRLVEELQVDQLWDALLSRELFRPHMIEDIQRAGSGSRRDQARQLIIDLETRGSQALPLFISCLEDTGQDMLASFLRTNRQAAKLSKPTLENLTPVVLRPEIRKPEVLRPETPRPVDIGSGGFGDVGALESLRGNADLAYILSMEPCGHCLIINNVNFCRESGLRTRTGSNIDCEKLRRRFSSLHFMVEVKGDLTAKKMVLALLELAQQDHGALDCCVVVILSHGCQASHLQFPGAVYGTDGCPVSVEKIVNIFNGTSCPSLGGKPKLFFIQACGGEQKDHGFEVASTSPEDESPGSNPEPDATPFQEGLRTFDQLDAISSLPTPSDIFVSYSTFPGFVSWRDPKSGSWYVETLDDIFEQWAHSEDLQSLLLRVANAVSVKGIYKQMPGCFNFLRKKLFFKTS
Description: Overlapping dodecapeptides covering the whole human PP2Ac sequence were prepared by atomated spot synthesis (Abimed, Langerfield, Germany) onto an amino-derived cellulose membrane, as described (Frank and Overwin, 1996 Meth. Mol. Biol. 66, 149-169; Gausepohl et al., 1992 Pept Res, 5, 315-320). The membrane was saturated using 3% BSA and 3% non-fat dry milk, incubated with purified human caspase-9 and after several washing steps, incubates with anti-caspase-9 antibody, followed by PO-conjugated secondary antibody. Positive spots were visualized using the ECL system.
To identify peptides containing PP2Ac sequences able to binding to caspase-9, a series of 150 overlapping dodecapeptides (shift of 2 amino acids) from human PP2Ac (sequence deduced from NCBI, accession number NP_00270601) were bound onto a cellulose membrane and incubated with purified caspase-9.

TS1αβ cells = test: Cell death assay (annexin V / PI flow cytometry); assay type: cell-based, murine; details: peptides at 150 μM
Description: An Annexin-V-FITC conjugated kit (Roche) was used for the assessment of outer leaflet exposure of phosphatidylserine (PS) in the plasma membrane of apoptotic cells. Staining was performed according to the manufacturer's instructions. A total of […] cells were analyzed by flow cytometry in a FACSCalibur cytofluometer (BD Biosciences). Necrotic cells were excluded by propidium iodide (PI) staining, and single annexin V positive cells were considered apoptotic. For apoptotic analysis the different peptides were used at 150 μM.
Using flow cytometry detection of annexin V and PI, the inventors analyzed the capacity of DPT-C9 to induce apoptosis in TS1αβ cells cultured in presence of IL-2. In contrast to non penetrating C9 peptide, DPT-C9 induced a 6-fold increase of apoptosis.

PP2Ac = target: T2, PP2Ac (Mus musculus, UniProt P63330); test: Pull down assay of biotinylated peptides with cell lysate, Western blot with PP2Ac antibody; assay type: binding, murine; details: cellular extracts from IL-2-stimulated cells
T2 construct: endogenous in cells; host or cells: TS1αβ murine T cell line, IL-2-stimulated, NP-40 lysate
Description: Biotinylated peptides were preincubated 2 h at 0-100 μM (in final concentration with lysate) at room temperature with 30 μl of streptavidin-coated immunomagnetic beads (Calbiochem, San Diego Calif.). During this time, […] exponentially growing TS1αβ cells were first washed twice with PBS and then lysed 10 minutes on ice in 400 μl of lysis buffer (50 mM Tris pH7.4, 150 mM NaCl, 20% glycerol, 1% NP-40, 10 mM EDTA, 1 mM PhenylMethylSulfonyl Fluoride, 10 mM NaF, 1 mM orthovanadate, “complete, EDTA-free” protease inhibitor cocktail from Roche).
Lysates were clarified at 13000 g for 10 minutes at 4° C. and were incubated with biotinylated peptides associated with the streptavidin-coated immunomagnetic beads 2 h at 4° C. Biotinylated peptides were pulled down with streptavidin beads and washed two times in 700 μl of lysis buffer on ice. Bound proteins and unbound lysates were then analyzed by SDS-PAGE and Western Blotting using PP1c or PP2Ac antibodies.
To determine the capacity of DPT-C9 to interact with PP2Ac, the inventors performed pull-down experiments using cellular extracts from IL-2-stimulated cells incubated with biotinylated peptides or beads alone.

[2] = target: T3, PP2Ac (catalytic subunit of PP2A) from lysate of IL-2-stimulated murine TS1αβ cells (mouse, UniProt P63330 1-309); test: pull-down from IL-2-stimulated TS1αβ cell lysate with biotinylated peptide on streptavidin beads, Western blot
T3 construct: Endogenous protein from cell lysate, detected by Western blot with a PP2Ac antibody; It may have been part of a PP2A holoenzyme in the lysate

[3] = target: T4, caspase-9 from lysate of murine TS1αβ cells (mouse, UniProt Q8C3Q9 1-454, limits assumed); test: as above
T4 construct: Endogenous protein in the lysate; also called murine caspase-9; mouse caspase-9
T4 sequence (looked up): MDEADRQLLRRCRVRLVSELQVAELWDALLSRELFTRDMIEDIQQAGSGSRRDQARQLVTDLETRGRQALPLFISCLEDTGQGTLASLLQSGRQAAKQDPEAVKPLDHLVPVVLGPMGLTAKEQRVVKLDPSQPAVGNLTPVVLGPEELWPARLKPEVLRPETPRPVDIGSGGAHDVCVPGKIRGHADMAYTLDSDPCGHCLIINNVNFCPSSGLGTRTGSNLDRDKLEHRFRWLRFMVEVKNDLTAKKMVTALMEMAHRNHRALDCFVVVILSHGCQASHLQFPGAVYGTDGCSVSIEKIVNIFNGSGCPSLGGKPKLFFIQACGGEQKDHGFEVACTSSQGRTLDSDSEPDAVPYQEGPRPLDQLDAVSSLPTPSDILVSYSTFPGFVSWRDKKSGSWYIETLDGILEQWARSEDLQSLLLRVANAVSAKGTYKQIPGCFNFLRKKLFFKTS

T2 sequence (P63330 whole entry): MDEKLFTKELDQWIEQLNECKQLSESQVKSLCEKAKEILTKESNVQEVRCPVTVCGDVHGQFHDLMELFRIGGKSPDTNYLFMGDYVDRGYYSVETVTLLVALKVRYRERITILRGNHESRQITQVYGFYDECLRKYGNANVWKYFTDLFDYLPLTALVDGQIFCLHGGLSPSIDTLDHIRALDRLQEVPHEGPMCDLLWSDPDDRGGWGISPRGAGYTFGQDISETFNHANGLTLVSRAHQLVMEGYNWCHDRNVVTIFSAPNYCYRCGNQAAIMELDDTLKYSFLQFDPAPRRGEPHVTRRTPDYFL
T3 sequence (P63330 whole entry): as above

Molecule	Cell penetration [1]	internalized [1]	binding to purified caspase-9 (human caspase-9)	further results
CC[C@H](C)[C@H](NC(=O)CNC(=O)[C@H](CC(=O)O)NC(=O)[C@H](CC(C)C)NC(=O)[C@@H](NC(=O)[C@H](CCC(=O)O)NC(=O)[C@@H](NC(=O)[C@@H](N)Cc1ccc(O)cc1)[C@@H](C)CC)[C@@H](C)O)C(=O)N[C@@H](CC(C)C)C(=O)N[C@@H](CCC(=O)O)C(=O)N[C@@H](CCC(N)=O)C(=O)N[C@@H](Cc1c[nH]c2ccccc12)C(=O)N[C@@H](C)C(=O)N[C@@H](CCCNC(=N)N)C(=O)N[C@@H](CO)C(=O)N[C@@H](CCC(=O)O)C(=O)N[C@@H](CC(=O)O)C(=O)N[C@@H](CC(C)C)C(=O)O [C9, YIETLDGILEQWARSEDL] (H-YIETLDGILEQWARSEDL-OH; N-terminus and C-terminus assumed)	No	is not internalized		
CC[C@H](C)[C@H](NC(=O)CNC(=O)[C@H](CC(=O)O)NC(=O)[C@H](CC(C)C)NC(=O)[C@@H](NC(=O)[C@H](CCC(=O)O)NC(=O)[C@@H](NC(=O)[C@H](Cc1ccc(O)cc1)NC(=O)[C@@H](NC(=O)[C@H](CCCCN)NC(=O)[C@@H](NC(=O)[C@H](CCC(=O)O)NC(=O)[C@H](CCCNC(=N)N)NC(=O)[C@H](CCCCN)NC(=O)[C@@H](NC(=O)[C@H](CCCCN)NC(=O)[C@H](CCCCN)NC(=O)[C@H](CCCCN)NC(=O)[C@H](CCCCN)NC(=O)[C@@H](N)C(C)C)[C@@H](C)CC)[C@@H](C)CC)[C@@H](C)CC)[C@@H](C)CC)[C@@H](C)O)C(=O)N[C@@H](CC(C)C)C(=O)N[C@@H](CCC(=O)O)C(=O)N[C@@H](CCC(N)=O)C(=O)N[C@@H](Cc1c[nH]c2ccccc12)C(=O)N[C@@H](C)C(=O)N[C@@H](CCCNC(=N)N)C(=O)N[C@@H](CO)C(=O)N[C@@H](CCC(=O)O)C(=O)N[C@@H](CC(=O)O)C(=O)N[C@@H](CC(C)C)C(=O)O [DPT-C9, VKKKKIKREIKI-YIETLDGILEQWARSEDL] (H-VKKKKIKREIKIYIETLDGILEQWARSEDL-OH; N-terminus and C-terminus assumed)	Yes	are internalized		
CC[C@H](C)[C@H](NC(=O)[C@H](CC(C)C)NC(=O)[C@H](CCC(=O)O)NC(=O)[C@H](CCC(N)=O)NC(=O)[C@H](Cc1c[nH]c2ccccc12)NC(=O)[C@H](C)NC(=O)[C@H](CCCNC(=N)N)NC(=O)[C@H](CO)NC(=O)[C@H](CCC(=O)O)NC(=O)[C@H](CC(=O)O)NC(=O)[C@H](CC(C)C)NC(=O)[C@@H](NC(=O)[C@H](CCCCN)NC(=O)[C@@H](NC(=O)[C@H](CCC(=O)O)NC(=O)[C@H](CCCNC(=N)N)NC(=O)[C@H](CCCCN)NC(=O)[C@@H](NC(=O)[C@H](CCCCN)NC(=O)[C@H](CCCCN)NC(=O)[C@H](CCCCN)NC(=O)[C@H](CCCCN)NC(=O)[C@@H](N)C(C)C)[C@@H](C)CC)[C@@H](C)CC)[C@@H](C)CC)C(=O)NCC(=O)N[C@@H](CC(=O)O)C(=O)N[C@@H](CC(C)C)C(=O)N[C@H](C(=O)N[C@@H](CCC(=O)O)C(=O)N[C@H](C(=O)N[C@@H](Cc1ccc(O)cc1)C(=O)O)[C@@H](C)CC)[C@@H](C)O [DPT-C9r, VKKKKIKREIKI-LDESRAWQELIGDLTEIY] (H-VKKKKIKREIKILDESRAWQELIGDLTEIY-OH; N-terminus and C-terminus assumed)	Yes	are internalized		
N=C(N)NCCC[C@H](NC(=O)[C@H](CCCNC(=N)N)NC(=O)[C@H](CCCNC(=N)N)NC(=O)[C@H](CCC(N)=O)NC(=O)[C@H](CCCNC(=N)N)NC(=O)[C@H](CCCNC(=N)N)NC(=O)[C@H](CCCCN)NC(=O)[C@H](CCCCN)NC(=O)[C@H](CCCNC(=N)N)NC(=O)CNC(=O)[C@@H](N)Cc1ccc(O)cc1)C(=O)O [Tat, YGRKKRRQRRR]		are internalized		
DTLDHIRALDRL (Synthetic PP2A peptide) [dodecapeptide from human PP2Ac]			bind to purified caspase-9	
HIRALDRLQEVP (Synthetic PP2A peptide) [dodecapeptide from human PP2Ac]			bind to purified caspase-9	
LDHIRALDRLQE (Synthetic PP2A peptide) [dodecapeptide from human PP2Ac]			bind to purified caspase-9	
LDRLQEVPHEGP (Synthetic PP2A peptide) [dodecapeptide from human PP2Ac]			bind to purified caspase-9	
RALDRLQEVPHE (Synthetic PP2A peptide) [dodecapeptide from human PP2Ac]			bind to purified caspase-9	
VKKKKIKREIKI [DPT-sh1]	Yes	are internalized		induction of apoptosis / cell death (in words) (TS1αβ cells): behaves as negative control; interact with PP2Ac (PP2Ac): do not interact with PP2Ac
B1				binding result [2]: no binding (tested: 0-100 µM peptide)
VKKKKIKREIKIYIETLDGILEQWARSEDL (also: biotinylated, position not given here, Used biotinylated in the pull-down) [DPT-C9 (fusion of DPT-sh1 shuttle and C9 sequence)]				binding result [3]: no binding (tested: 0-100 µM peptide)
B2				binding result [3]: no binding (tested: 0-100 µM peptide)

Reference: patent publication US20130303439A1, “CHIMERIC PEPTIDES INCLUDING A PENETRATING PEPTIDE AND A BINDING DOMAIN OF PP2A CATALYTIC SUBUNIT TO CASPASE-9” (Institut National de la Sante et de la Recherche Medicale …, priority 2010, published 2013)
